Usually Kd stands for a measure of binding affinity in units of concentration. A high value points to lower affinity.

The experiment deals with T1, full-length Ste2p L211R (Saccharomyces cerevisiae, UniProt D6VTK4 1-431, L211R).
T1 sequence (looked up): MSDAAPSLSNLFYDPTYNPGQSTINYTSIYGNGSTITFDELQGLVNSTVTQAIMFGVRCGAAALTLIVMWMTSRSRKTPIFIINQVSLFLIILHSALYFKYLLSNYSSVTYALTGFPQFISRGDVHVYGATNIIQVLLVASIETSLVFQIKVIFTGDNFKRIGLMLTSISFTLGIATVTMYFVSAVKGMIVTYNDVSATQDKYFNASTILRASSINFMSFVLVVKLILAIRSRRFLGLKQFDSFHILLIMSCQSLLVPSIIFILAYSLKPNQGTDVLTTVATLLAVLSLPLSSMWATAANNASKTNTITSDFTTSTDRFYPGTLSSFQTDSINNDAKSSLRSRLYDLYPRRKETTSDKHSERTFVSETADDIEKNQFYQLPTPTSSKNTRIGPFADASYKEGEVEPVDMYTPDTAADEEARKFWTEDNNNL
Nature of the experiment: flow cytometry on cells. (Flow cytometry measures light scatter and fluorescence of single cells or particles in a stream.)

B1: [K^7(NBD),Nle^12] α-factor (peptide)
chain: WHWLQLKPGQPMY
modifications: NBD (7-nitrobenz-2-oxa-1,3-diazol-4-yl) conjugated to the lysine at position 7; norleucine at position 12 in place of methionine
In turn, B1 displayed a Kd of 0.8 ± 0.1 nM.

These data come from paper PMC4405178 (Biochemistry, 2015).
